This test has as its target …. The test can be described thus: G assay.

B1: GST-PAR3 PDZ domain 3 fusion protein (other, not shown: a dimerising Fc or GST; small tags and cut ends)
chain: PREFLTFEVPLNDSGSAGLGVSVKGNRSKENHADLGIFVKSIINGGAASKDGRLRVNDQLIAVNGESLLGKTNQDAMETLRRSMSTEGNKRGMIQLIVASRISKCNELKSNSS
notes: also called PAR3 d3 (278.1); PAR3 d3
Turning to B1, the binding result is reported as “binds”.

B2: GST-RIM2 PDZ domain 1 fusion protein (other, not shown: a dimerising Fc or GST; small tags and cut ends)
chain: TLNEEHSHSDKHPVTWQPSKDGDRLIGRILLNKRLKDGSVPRDSGAMLGLKVVGGKMTESGRLCAFITKVKKGSLADTVGHLRPGDEVLEWNGRLLQGATFEEVYNIILESKPEPQVELVVSRPIG
notes: also called RIM-2 d1; RIM2 (177.4)
Regarding B2, the binding result is recorded as “binds”.

B3: GST-ZO-1 PDZ domain 2 fusion protein (other, not shown: a dimerising Fc or GST; small tags and cut ends)
chain: ISSQPAKPTKVTLVKSRKNEEYGLRLASHIFVKEISQDSLAARDGNIQEGDVVLKINGTVTENMSLTDAKTLIERSKGKLKMVVQRDRATLLNSS
notes: also called ZO-1 d2 (241.3); ZO-1 d2
On to B3, for which the binding result is reported as “binds”.

The values above are taken from patent US20050164933A1 (NONO, published 2005).
